In US20120276102A1 (Pfizer, published 2012):

B1: scFv L13 (scFv)
scFv: QVQLQESGPGLVKTSETLSLTCAVSGYSISSGYYWGWIRQPPGKGLEWIGSISHTGNTYYNPPLKSRVTISVDTSKNQFSLKLSSVTAADTAVYYCARGGGISRPEYWGKGTLVTVSSGGGGSGGGGSGGGGSALSSELTQDPPVSVALGQTVTLTCQGDSLRTYYASWYQQKSGQAPILLLYGKHKRPSGIPDRFSGSTSGDTASLTITGAQAEDEADYYCVTRNRYGNPHVLFGGGTQLTVL
B2: scFv L17 (scFv)
scFv: QVQLQESGPGLVKTSETLSLTCAVSGYSISSGYYWGWIRQPPGKGLEWIGSISHTGNTYYNPPLKSRVTISVDTSKNQFSLKLSSVTAADTAVYYCARGGGISRPEYWGKGTLVTVSSGGGGSGGGGSGGGGSALSSELTQDPPVSVALGQTVTLTCQGDSLRTYYASWYQQKSGQAPILLLYGKHKRPSGIPDRFSGSTSGDTASLTITGAQAEDEADYYCSTRSRKGNPHVLFGGGTQLTVL
B3: scFv L14 (scFv)
scFv: QVQLQESGPGLVKTSETLSLTCAVSGYSISSGYYWGWIRQPPGKGLEWIGSISHTGNTYYNPPLKSRVTISVDTSKNQFSLKLSSVTAADTAVYYCARGGGISRPEYWGKGTLVTVSSGGGGSGGGGSGGGGSALSSELTQDPPVSVALGQTVTLTCQGDSLRTYYASWYQQKSGQAPILLLYGKHKRPSGIPDRFSGSTSGDTASLTITGAQAEDEADYYCMARSRKGNPHVLFGGGTQLTVL
B4: scFv L21 (scFv)
scFv: QVQLQESGPGLVKTSETLSLTCAVSGYSISSGYYWGWIRQPPGKGLEWIGSISHTGNTYYNPPLKSRVTISVDTSKNQFSLKLSSVTAADTAVYYCARGGGISRPEYWGKGTLVTVSSGGGGSGGGGSGGGGSALSSELTQDPPVSVALGQTVTLTCQGDSLRTYYASWYQQKSGQAPILLLYGKHKRPSGIPDRFSGSTSGDTASLTITGAQAEDEADYYCATRAVRGNPHVLFGGGTQLTVL
B5: scFv L19 (scFv)
scFv: QVQLQESGPGLVKTSETLSLTCAVSGYSISSGYYWGWIRQPPGKGLEWIGSISHTGNTYYNPPLKSRVTISVDTSKNQFSLKLSSVTAADTAVYYCARGGGISRPEYWGKGTLVTVSSGGGGSGGGGSGGGGSALSSELTQDPPVSVALGQTVTLTCQGDSLRTYYASWYQQKSGQAPILLLYGKHKRPSGIPDRFSGSTSGDTASLTITGAQAEDEADYYCVARAVRGNPHVLFGGGTQLTVL
B6: scFv L15 (scFv)
scFv: QVQLQESGPGLVKTSETLSLTCAVSGYSISSGYYWGWIRQPPGKGLEWIGSISHTGNTYYNPPLKSRVTISVDTSKNQFSLKLSSVTAADTAVYYCARGGGISRPEYWGKGTLVTVSSGGGGSGGGGSGGGGSALSSELTQDPPVSVALGQTVTLTCQGDSLRTYYASWYQQKSGQAPILLLYGKHKRPSGIPDRFSGSTSGDTASLTITGAQAEDEADYYCSTRAIHGNPHVLFGGGTQLTVL
B7: scFv L18 (scFv)
scFv: QVQLQESGPGLVKTSETLSLTCAVSGYSISSGYYWGWIRQPPGKGLEWIGSISHTGNTYYNPPLKSRVTISVDTSKNQFSLKLSSVTAADTAVYYCARGGGISRPEYWGKGTLVTVSSGGGGSGGGGSGGGGSALSSELTQDPPVSVALGQTVTLTCQGDSLRTYYASWYQQKSGQAPILLLYGKHKRPSGIPDRFSGSTSGDTASLTITGAQAEDEADYYCVTRSVKGNPHVLFGGGTQLTVL
B8: scFv L16 (scFv)
scFv: QVQLQESGPGLVKTSETLSLTCAVSGYSISSGYYWGWIRQPPGKGLEWIGSISHTGNTYYNPPLKSRVTISVDTSKNQFSLKLSSVTAADTAVYYCARGGGISRPEYWGKGTLVTVSSGGGGSGGGGSGGGGSALSSELTQDPPVSVALGQTVTLTCQGDSLRTYYASWYQQKSGQAPILLLYGKHKRPSGIPDRFSGSTSGDTASLTITGAQAEDEADYYCVTRSAKGNPHVLFGGGTQLTVL
B9: scFv L24 (scFv)
scFv: QVQLQESGPGLVKTSETLSLTCAVSGYSISSGYYWGWIRQPPGKGLEWIGSISHTGNTYYNPPLKSRVTISVDTSKNQFSLKLSSVTAADTAVYYCARGGGISRPEYWGKGTLVTVSSGGGGSGGGGSGGGGSALSSELTQDPPVSVALGQTVTLTCQGDSLRTYYASWYQQKSGQAPILLLYGKHKRPSGIPDRFSGSTSGDTASLTITGAQAEDEADYYCIARSNKGNPHVLFGGGTQLTVL
B10: scFv L25 (scFv)
scFv: QVQLQESGPGLVKTSETLSLTCAVSGYSISSGYYWGWIRQPPGKGLEWIGSISHTGNTYYNPPLKSRVTISVDTSKNQFSLKLSSVTAADTAVYYCARGGGISRPEYWGKGTLVTVSSGGGGSGGGGSGGGGSALSSELTQDPPVSVALGQTVTLTCQGDSLRTYYASWYQQKSGQAPILLLYGKHKRPSGIPDRFSGSTSGDTASLTITGAQAEDEADYYCTTRSNKGNPHVLFGGGTQLTVL
B11: scFv L20 (scFv)
scFv: QVQLQESGPGLVKTSETLSLTCAVSGYSISSGYYWGWIRQPPGKGLEWIGSISHTGNTYYNPPLKSRVTISVDTSKNQFSLKLSSVTAADTAVYYCARGGGISRPEYWGKGTLVTVSSGGGGSGGGGSGGGGSALSSELTQDPPVSVALGQTVTLTCQGDSLRTYYASWYQQKSGQAPILLLYGKHKRPSGIPDRFSGSTSGDTASLTITGAQAEDEADYYCVSRSAKGNPHVLFGGGTQLTVL

Experiments:
[1] = target: T1, murine IL-21R extracellular domain His-Flag fusion protein (murine, UniProt Q9JHX3 20-237); experiment: competition ELISA; competitor plate-bound 18A5 IgG
T1 construct: Biotinylated in the ELISAs; also called mIL-21R-H/F; murine IL-21R-H/F
Protocol: Blocked plates were washed 3× with PBS, and 50 μl/well of scFv/IL-21R mixtures were transferred to the appropriate plates and incubated for 1 hr at RT. Plates were washed 5× with PBS prior to the addition of a 1:6000 dilution of horseradish peroxidase-conjugated streptavidin (Southern Biotech, Birmingham, Ala.) secondary antibody to detect bound biotinylated mIL-21R-H/F. Plates were then incubated for 1 hr at RT and washed 7× with PBS. Signal was developed using 3,3′,5,5′-tetramethylbenzidine (TMB), the reaction stopped with H₂SO₄, and the absorbance read at 450 nm on an ENVISION™ plate reader (Perkin Elmer).

[2] = target: murine IL-21R expressed on cells (murine, UniProt Q9JHX3 20-529); experiment: cell-based or functional assay
[3] = target: human IL-21R expressed on cells (human, UniProt Q9HBE5 20-538); experiment: cell-based or functional assay
Sequence of human IL-21R expressed on cells (Q9HBE5 20-538 limits assumed): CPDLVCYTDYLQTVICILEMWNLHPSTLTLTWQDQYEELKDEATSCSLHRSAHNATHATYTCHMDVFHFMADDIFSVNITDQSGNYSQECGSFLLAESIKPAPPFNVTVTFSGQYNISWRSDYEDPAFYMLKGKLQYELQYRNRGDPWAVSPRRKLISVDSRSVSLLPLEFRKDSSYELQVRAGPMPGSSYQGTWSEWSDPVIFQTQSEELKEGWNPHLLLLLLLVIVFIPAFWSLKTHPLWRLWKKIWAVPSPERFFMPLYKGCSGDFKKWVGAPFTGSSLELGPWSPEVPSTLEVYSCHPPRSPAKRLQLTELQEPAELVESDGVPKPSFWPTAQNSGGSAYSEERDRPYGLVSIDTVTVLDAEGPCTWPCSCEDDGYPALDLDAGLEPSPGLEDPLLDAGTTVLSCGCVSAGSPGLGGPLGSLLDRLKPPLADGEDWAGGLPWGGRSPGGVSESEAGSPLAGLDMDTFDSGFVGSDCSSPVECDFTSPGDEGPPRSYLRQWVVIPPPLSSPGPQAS

Row | Binder | IC50 [1] [nM] | IC50, Murine IL-21R-BaF3 Neutralization Assay [2] [nM] | IC50, Human IL-21R-BaF3 Neutralization Assay [3] [nM] | IC50, Human IL-21R-TF1 Neutralization Assay [3] [nM]
1 | B1 | 7 | 1.25 | 11 | 257
2 | B2 | 12 | 2.66 | 1.6 | 60.3
3 | B3 | 6 | 6.49 | 3.2 | 33.5
4 | B4 | 28 | 162 | 9.4 | ~100
5 | B5 | 15 | 13.6 | 4.5 | 35.3
6 | B6 | 14 | 53.5 | 3.3 | 30.3
7 | B7 | 8 | 8.34 | 3.7 | 54.4
8 | B8 | 6 | 4.71 | 3.7 | 67.4
9 | B9 | 6 | 3.73 | 2.4 | 18.7
10 | B10 | 9 | 15.6 | 3.7 | 33.1
11 | B11 | 5 | 15.4 | 3.1 | 57.5
